Data: PMC7864060, “The cation diffusion facilitator protein MamM's cytoplasmic domain exhibits metal-type dependent binding modes and discriminates against Mn^2+” (The Journal of Biological Chemistry, 2020)
Where a chain is given by its changes, count along the chain named. In names and notes the source's numbering stands.

B1: MamM CTD (cytoplasmic C-terminal domain of MamM, residues 215-318) (domain or fragment, UniProt V6F235 215-318, looked up)
chain: EAVQNRIVEAAERVPGVRGVIHLRARYVGQDIWADMIIGVDPENTVEQAHEICEAVQAAVCGKIRRIESLHVSAEAREIGDTTKPSFSDQPLSFDEVMLSKVDN
notes: MamM, cation diffusion facilitator iron transporter of magnetotactic bacteria, UniProt Q6NE57, C-terminal domain, residues 215-318; Homodimer in all crystal forms; also called WT MamM CTD; MamM's cytoplasmic domain
B2: spin-labeled C267S MamM CTD (domain or fragment, UniProt V6F235 215-318, looked up)
chain: B1 chain with C53S
modifications: MTSL spin label on Cys-275
notes: MamM, cation diffusion facilitator iron transporter of magnetotactic bacteria, UniProt Q6NE57, C-terminal domain, residues 215-318, with C267S; Only Cys-275 is left for labelling with MTSL; also called C267SSL; MamM CTD C267S

Legend:
[1] = biological target: the molecule itself; test: crystal structure; MamM CTD 20 mg/ml co-crystallised with 3.375 mM CuSO4; 10 mM Tris pH 8.0, 150 mM NaCl, 5 mM β-mercaptoethanol; vapor diffusion, 293 K
[2] = biological target: the molecule itself; test: PELDOR (pulsed EPR) spectroscopy; four-pulse PELDOR at 50 K on MTSL-labelled C267S MamM CTD (250 or 500 µM in D2O, 30% glycerol-d8) incubated with 3- or 5-fold excess of Cd2+, Ni2+, Cu2+, Fe2+ or Mn2+; distance between the Cys-275 labels of the two protomers

Protein	binding result [1]	binding result [2]
B1	binds	
B2		binds
